The text below walks through data of patent US20060294618A1 (CORNELL RESEARCH FOUNDATION, published 2006).

Experiment [1] deals with T1, TEV-HAT VPg, yeast two-hybrid bait fusion protein expressed from pEG202 (Tobacco etch virus, strain HAT, UniProt P0A7C2 1-202; P04517 1850-2037).
T1 sequence (looked up): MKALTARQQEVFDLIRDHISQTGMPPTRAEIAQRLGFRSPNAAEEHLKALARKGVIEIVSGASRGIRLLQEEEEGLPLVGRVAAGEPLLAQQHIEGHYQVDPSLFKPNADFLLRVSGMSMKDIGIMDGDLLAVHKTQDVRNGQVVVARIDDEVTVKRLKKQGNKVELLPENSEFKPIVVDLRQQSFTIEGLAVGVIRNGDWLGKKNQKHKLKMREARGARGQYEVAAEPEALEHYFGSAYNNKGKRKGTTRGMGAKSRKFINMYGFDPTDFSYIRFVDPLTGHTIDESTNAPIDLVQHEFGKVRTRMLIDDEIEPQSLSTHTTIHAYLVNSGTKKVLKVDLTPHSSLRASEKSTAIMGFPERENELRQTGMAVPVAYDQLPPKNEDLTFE
Description: yeast two-hybrid, beta-galactosidase assay.
Description: Bait plasmid pEG202 was used to express the fusion protein TEV-HAT VPg. The prey plasmid pJG4-5 was used to express pepper eIF4E. pEG202: Pto and PJG4-5:AvrPto were served as a positive control.

Another experiment addresses T2, GST-VPgHAT (Tobacco etch virus, strain HAT, UniProt P04517 1850-2037).
T2 construct: Immobilized on glutathione-Sepharose 4B beads; also called TEV-HAT VPg (GST fusion); not shown: glutathione S-transferase (GST)
T2 sequence (looked up): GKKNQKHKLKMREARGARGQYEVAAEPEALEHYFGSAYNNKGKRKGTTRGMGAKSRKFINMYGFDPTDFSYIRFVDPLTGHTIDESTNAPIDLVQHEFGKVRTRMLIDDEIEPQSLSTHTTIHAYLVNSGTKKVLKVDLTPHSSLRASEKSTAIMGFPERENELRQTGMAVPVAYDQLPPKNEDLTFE
The experiment is described as follows: GST pull-down, 35S-labeled in vitro-translated eIF4E.

Description for GST-VPgHAT: The input protein panel represents equivalent amounts of GST, GST-VPgHAT, and GST-VPgNW used in the pull-downs assay and 20% of in vitro-translated eIF4Es.
GST, GST-VPgHAT, and GST-VPgNW proteins were bound to 10 μl GST-Sepharose beads and resuspended in 195 μl IPAB-gelatin buffer (20 mM HEPES pH7.8, 150 mM KCl, 0.1% gelatin, 0.1% Triton X-100, 0.1% NP-40, 5 mM MgCl₂, 2 mM DTT). TnT translation products (5 μl) were added to prepared GST fusion Sepharose, mixed by end-over rotation at 4° C. for overnight, and washed 3× with 1×PBS buffer containing 2 mM DTT. The Sepharose beads were resuspended in 20 μl SDS-PAGE loading buffer and incubated for 2 min at 100° C. Released proteins were separated by SDS-PAGE. Following electrophoresis, gels were fixed, dried, and exposed to a phosphorimaging screen.

B1: eIF4E-234 mutant translation initiation factor eIF4E (Capsicum chinense PI 159234, pvr1 allele), yeast two-hybrid prey fusion expressed from pJG4-5 (other)
chain: MATAEMEKTTTFDEAEKVKLNANEADDEVEEGEIVEETDDTTSYLSKEIAAKHPLEHSWTFWFDNTVAKSRQAAWGSSLRNVYTFSTVEDFWGAYNNIHHPSKLVVRADLHCFKHKIEPKWEDPVCANGGTWKMSFSKGKSDTSWLYTLLAMIGHQFDHEDEICGAVVSVRGKGEKISLWTKNAANETAQVSIGKQWKQFLDYSDSVGFIFHDDAKRLDRNAKNRYTV
notes: not shown: fusion partner encoded by prey plasmid pJG4-5
With B1, the binding result in experiment [1] was “no binding”.

B2: eIF4E-234 (pvr1), 35S-labeled, translated in vitro from pET16b (other)
chain: MATAEMEKTTTFDEAEKVKLNANEADDEVEEGEIVEETDDTTSYLSKEIAAKHPLEHSWTFWFDNTVAKSRQAAWGSSLRNVYTFSTVEDFWGAYNNIHHPSKLVVRADLHCFKHKIEPKWEDPVCANGGTWKMSFSKGKSDTSWLYTLLAMIGHQFDHEDEICGAVVSVRGKGEKISLWTKNAANETAQVSIGKQWKQFLDYSDSVGFIFHDDAKRLDRNAKNRYTV
modifications: 35S-labeled (in vitro translation in reticulocyte lysate)
notes: also called resistant allele
As for B2, the binding result in the experiment with GST-VPgHAT is “no binding”.

B3: eIF4E-DEMP (pvr2^2 / pvr1^2), 35S-labeled, translated in vitro from pET16b (other)
chain: MATAEMEKTTTFDEAEKVKLNANEADDEVEEGEIVEETDDTTSYLSKEIATKHPLEHSWTFWFDNPEAKSKQAAWGSSRRNVYTFSTVEDFWGAYNNIHHPSKLVVGANLHCFKHKIEPKWEDPVCANGGTWKMSFSKGKSDTSWLYTLLAMIGHQFDHEDEICGAVVSVRGKGEKISLWTKNAANETAQVSIGKQWKQFLDYSDSVGFIFHDDAKRLDRNAKNRYTV
modifications: 35S-labeled (in vitro translation in reticulocyte lysate)
notes: also called DEMP (pvr1^2); resistant allele
Take B3: in the experiment with GST-VPgHAT, the binding result was “no binding”.

B4: eIF4E-YY (pvr2^1 / pvr1^1), 35S-labeled, translated in vitro from pET16b (other)
chain: MATAEMEKTTTFDEAEKVKLNANEADDEVEEGEIVEETDDTTSYLSKEIATKHPLEHSWTFWFDNPEAKSKQAAWGSSRRNVYTFSTVEDFWGAYNNIHHPSKLVVGADLHCFKHKIEPKWEDPVCANGGTWKMSFSKGKSDTSWLYTLLAMIGHQFDHEDEICGAVVSVRGKGEKISLWTKNAANETAQVSIGKQWKQFLDYSDSVGFIFHDDAKRLDRNAKNRYTV
modifications: 35S-labeled (in vitro translation in reticulocyte lysate)
notes: also called YY (pvr1^1); resistant allele
As to B4, the binding result with GST-VPgHAT is “no binding”.
